From a protein production outcome set (Wang et al. 2014) come the findings set out here.

The nature of this data set: label from the status in PepcDB records.
“MKQKLVVMIAAVLILALTVSIASAEDQNDQTSLRSEQNDAFVAGDNLIDSSSVIKYGDPIGSYKNVTAYSNKGNGKYQCVEYVKRFYKEAMNVEPDWDGTGNAITYYTNAEAKGLVSYSNNGSVAPKPDDIIIFSPTDNGYGHVAIITEVGDKYIKIIEQNWNQENAFASLSLEKNGSKYYISPRGASKRPTEGWCRTPILNIISPTKKSFSLVGNYNNPNLLTVDAEVKSENVPITGLNKDNFTIEIGSKKVNDVTVSDVGEGKYKLSFNPPKQDSNGNYDLNVYVKYKKVTLSDSELNAVRYGEDNANANANVMLVIDRSGSMSGSPISSAKNSANLFIDYMEAEDMAGVVSFSSSARYDYHLATLTPEVKNSIKQKINSIYASGVTAIGSGMRYGLNDLLNYGDPNNPWAIVLLSDGYQNSGENPNNVIPSIKASNIQVYTVGLGPAVDQKLLGNIADQTGGKYYYSPTDSQLQEIYNDIVGKIIGWKTVFKRNVKMFIHERVPIAVPIDSAIDKVSFGIGWPGSNVDLVLYKPDGTLVDPSFADSDPTIEYLSGPTYKIYKVTDPESGMWNMELNATDMPAGGEDVYVTVLAESTLSMSLSTNKGQYNQGEVVKIIADLSDAGTQITGADVKVNVTLPDSSVEYLTLYDDGGHGDNGSQDGVYANYLVDTSLMGDYKVDVTSTGSLSDGSQFKRIEDTSFEIIQGISSISSIANLQSTNDITWINWTWTNPTGPNFSHTEIYLDGVFQANTSAEFFNATGLEPETEYTLSTHTVDISGNVNETWVNSTATTSAELVSDVKKPVIDSVNLFPANTTAGATINLSINATDDTAVTEVIAGDIQLIKTDDIWQGSITAPSSIGSYSLLIKAKDAAGNVAEASVPYRVVQLSGGANIAVSPRSSSIVAGNSVTLNIKVKNTQNIDDIFKVNITVSELPAANQANIDWFSWTEQSVKLRAGEEILLPLEVEVPDGTALGLKLFRANVNSETSVVTGFDTGYLKVV”: the protein production entry is “failed”.

With “MSLSKILIAGCGDLGLELARRLTAQGHEVTGLRRSAQPMPAGVQTLIADVTRPDTLASIVHLRPEILVYCVAASEYSDEHYRLSYVEGLRNTLSALEGAPLQHVFFVSSTGVYGQEVEEWLDEDTPPIAKDFSGKRMLEAEALLAAYSSTILRFSGIYGPGRLRMIRQAQTPEQWPARNAWTNRIHRDDGAAFIAYLIQQRSHAVPERLYIVTDNQPLPVHDLLRWLADRQGIAYPAGATPPVQGNKKLSNARLLASGYQLIYPDYVSGYGALLAAMREGHHHHHH”, the protein production result is listed as “not failed”. Then “MQTINTHPVQPLKLDSEVQRQMNFQFLTAMKAFFTLLTTEDNIDAVDELSSILIHSRAFELAAESMQTDPEVAHLIKERYYAPVHDVEQLLQYPADSLGYLYASTLKESGFERIDPEIIVNSDTAYIEHRWQQTHDIWHLVTGFSASGIDEIGLQAFYLAQFRLPLASMLIANALMSATLLAPEDLPQLLQTIERGWTMGLQAKPLFAQKWEEAWEKPLSQWRDELNIQAFS”, with “failed”. Consider “MDKYLSANSLEGVIDNEFSMPAPRWLNTYPAGPYRFINREFFIIAYETDPDLLQAILPPDMELLEPVVKFEFIRMPDSTGFGDYTESGQVVPVRYKGEEGGFTISMFLDCHAPIAGGREIWGFPKKLAKPKLFVEEDTLIGILKYGSIDIAIATMGYKHRPLDAEKVLESVKKPVFLLKNIPNVDGTPLVNQLTKTYLTDITVKGAWTGPGSLELHPHALAPISNLYIKKIVSVSHFITDLTLPYGKVVADYLA”, for which the protein production result was “not failed”. Then “MTRQRIAIDMDEVLADTLGAVVKAVNERADLNIKMESLNGKKLKHMIPEHEGLVMDILKEPGFFRNLDVMPHAQEVVKQLNEHYDIYIATAAMDVPTSFHDKYEWLLEYFPFLDPQHFVFCGRKNIILADYLIDDNPKQLEIFEGKSIMFTASHNVYEHRFERVSGWRDVKNYFNSIEK”, with “failed”; and “MDADNTAHLIYLSLLGAALVFWFISHNRASLGKTLQMALAWVFIFVGVIAVVGLWGDIRSTVAGTPRISVSENRVEIPRSPDGHYYATLIIEDKPLRFLVDTGASQVVLSHADAERLGIDTSALNYFGRAYTANGEVRTAPVKLGRVQLGGFTDQGVTAWVNEGEMSESLLGMDYLQRFRSIEIAGGTLVLAR”, with “failed”. In the case of “MIRISIALLDHQEQLPNMFENLSEDLRKALNEAGYIKPTRVQEVVIPELMNGKSVIVQAKTGSGKTAAYVIPILERNSTALILSPTRELATQILDEIKKLGKYKQIDVSLIIGGMSYDDQRQSKIVVGTPGRLLDLWSKGKIDFSGYDFVIVDEADRMLDMGFIDDIRMILNHCNAKIAGFFSATIPDEIMTLAKEFSKDLREIVLDEYKPVEEVKQKFVKVRNDWNDKVSKLLEEINGEKILVFARTRDRARKLYYLLKGKGVNVGLLSGDMPQSVRLKNFYGFKKGKYNVLVATDLASRGIDIIDVNKVINFDIPRDVETYIHRVGRTGRMGRVGQAITFYTFREADMIKRINNLLAI”, the protein production entry is “failed”. Consider “MITLSQRIFIILESAWRRRYLIVLPIILMPFIGLTVAKLAPKHYDSHTSMLIQETAKMNPFLEDLAVSTMLKERLSALQTLLHSRHILGSVAEERGYIHESMSPQAIDNEINKLSANLSVSMAGKDLIRIDYRANNPDGMKDTLEAVSRHFTEQLLAPERSSMKDSSKFLSDNIEFRRQELDAAEEKLAEFKSQENTVLPEMQITSLDRLTKLKQRLYERQAELAGAKKRLGSIDLQLSKTNPVIGKIEEQIIRIRGELTLLQAKYTPQHSKVQGKLRNLNRLEEERSRLLSQTQPGLSSEQLWDIASSNSVEDLAKAPPILLSQLEELQQATSKVDALTEETRVLESMIKDIELQASTFGQNEKVLYQLQRDLALKRELYNDLVERFEMAKLTRSLGVFEQEKRVKIIDRPYTPSGPSNLPTILYAIAGVIGGIGFGIGMAIIAELCDTSIRRKDEIATLSTSPVLSRIPPQPVKCFNLSEDTHSTTNNLLSSMSKAN”, for which the protein production entry is on record as “failed”. For the sequence “MKGLVELGEKAPDFTLPNQDFEPVNLYEVLKRGRPAVLIFFPAAFSPVCTKELCTFRDKMAQLEKANAEVLAISVDSPWCLKKFKDENRLAFNLLSDYNREVIKLYNVYHEDLKGLKMVAKRAVFIVKPDGTVAYKWVTDNPLNEPDYDEVVREANKIAGELVA”, the protein production entry is on record as “not failed”. Then “MTKNKKGKNKEVINNYEEEEDYNIIDHDENAEVDVIPEPDFNSNMVYLNIYDLDSVSKVVNTVARSVGAGAFHAGVEVYGYEYSFGYIMDGETGVTKTNARVMIQKNNEILKNIKTYRIHVNIYIYIFLLVFSKTPLTKEEVDLLVEVMKLQWIGDTYDILSRNCLNYADYFCNLLDVGGIPEWVMSLQKKVTWVKSNINIAASKLKELNKAAGIPNVINYLKKKYEDSNSSDDYKGCKVVVK”, with “failed”; and “ELQRRKLLQENILNSIPLPIHIKDVEDDFRYVFCNEESMRMFGTHEGETVCSVLDSEQAERMQKTDLEVFTTGKPYFGVERIILKDGRSYDTIVRKNIIYDGTKRLLLNIRWD”, with “failed”; and “MASHELDYRILGESMQTVEIELDPGETVIAEAGAMNYMTGDIRFTARMGDGSDGSLLGKLWSAGKRKLGGESVFMTHFTNEGQGKQHVAFAAPYPGSVVAVDLDDVGGRLFCQKDSFLCAAYGTRVGIAFTKRLGAGFFGGEGFILQKLEGDGLVFVHAGGTLIRRQLNGETLRVDTGCLVAFTDGIDYDVQLAGGLKSMLFGGEGLLLTTLKGSGTVWLQSLPFSRLAGRIYDATFRAREEVRTNNG”, with “not failed”. The result for “MARANFEPYGRDFPGGRATGRFCNGRLSSDFTSEAYGLKPTVPAYLDPSYNISDFATGVCFASAGTGYDNSTADVLGVIPLWKEVEYFKEYQSNLSAYLGHRRAAKIIRESLYIVSIGTNDFLENYYTLPDRRSQFSISQYQDFLVEIAEVFLKDIYRLGARKMSFTGISPMGCLPLERVTNLDDPFSCARSYNDLAVDFNGRLRRLVTKLNRELTGIKIYFANPYDIMWDIVTKPNLYGLEISSSACCGTGLFEMGFLCGQDNPLTCSDANKFVFWDAFHPTERTNQIVSDHFFKHLKNLFH” reads “failed”; that for “AVSGLYSSSDDVIELTPSNFNREVIQSDGLWLVEFYAPWCGHCQRLTPEWKKAATALKDVVKVGAVNADKHQSLGGQYGVQGFPTIKIFGANKNKPEDYQGGRTGEAIVDAALSALR”, “not failed”; that for “MAYDGLFTKKMVESLQFLTTGRVHKINQPDNDTILMVVRQNRQNHQLLLSIHPNFSRLQLTTKKYDNPFNPPMFARVFRKHLEGGIIESIKQIGNDRRIEIDIKSKDEIGDTIYRTVILEIMGKHSNLILVDENRKIIEGFKHLTPNTNHYRTVMPGFNYEAPPTQHKINPYDITGAEVLKYIDFNAGNIAKQLLNQFEGFSPLITNEIVSRRQFMTSSTLPEAFDEVMAETKLPPTPIFHKNHETGKEDFYFIKLNQFNDDTVTYDSLNDLLDRFYDARGERERVKQ”, “not failed”. In the case of “MRQGEPGSPFSYLPVYQGPAVMSLRIFYHPLYSALTLPARHRFPLAKYQALFERLGSLGYPLAEAAPATPEQIKRVHDAAYVEAALAGTLDADAIRQLGFPWSPLLMERTLRSVGATLAASRHALEQGCGLQISGGYHHAHRDVGSGFCLFNDLVIAAQVCLDEGRCEQVLIVDLDVHQGDGSAALCQGRRDIITLSLHGEHNFPRYKPASHMDFPLPSGMADDAYLTTLAEALNLALRLYAPDLILYQAGVDVHKDDELGYLALSDEGIRQRDAMVFDCALRHGLPIAAVPGGGYRRDWQQLIPLHMSLFEEAKKRYG”, the protein production result is reported as “failed”. For “MWFQLSSLRSILNVSTALRQVVVRTPWYAKRKSYKVLFWREITPLAIPIFLENTCVLLMGVLSTFLVSWLGKEAMAGVGLADSFNMVIMAFFAAIDLGTTVVVAFSLGKRDRRRARAAARQSLVIMTLFAVVLAVVIHYFGSEIINIVAGEATPEVKGLALTYLELTVLSYPAAAIALIGSGALRGAGNTKIPLMINGGMNILNIVISSILIYGAFSWQGLGFAGAGLGLTISRYIGAVAIIWVLMIGFNPALRIPLKSYLKPLNFGIIWEVMGIGIPASIESVLFNGGKLLTQMFVAGMGTNVIAGNFIAFSVAALINLPGNALGSASTIITGKRLGTGQIGQAERQLRHVFWMSTIVLTAIAWGTAPFAGLFASFYTQEQDVKEVVKVLLWLNAAFMPIWAAAWVLPSGFKGARDVRFAMWVSMLGMWGCRVVAGYTLGIVLGMGVVGVWLGMFLDWAVRGALFYWRLISGRWLWRYPRVKRE”, the protein production result was “failed”.

Turning to “MKWLDRLKIANYHRKRYKQFGNDKARTLGWQDEYSQISRFEALTRSLCLEAVSILDIGCGFGDLLEYIESQNQYPARYVGIDLQKQFITKARKKAFKTPVNFICGDFSKLVLPQSDYVFASGSLNYKSSNANHTIEMIEKMYRAARIGCVFNLLDEEKLPSMRMLESHNKVGVLRYCRWLCPDAQLIEGYSDHDFTIVMIKKAEPVS”, the protein production entry was “failed”. The result for “GGERRELKSLEQVHFAMAFEAPNYRAPDVYAAQVYAMALGGGMSSRLFQKVREERGLCYSIFAQSGAYEDTGQITIYAGTSGEEVADLAGLTVDELKRATEDMSEAEVARARAQLKAGLLMGLESPSNRAERLARLLAIWGRVPGVDEAVEKIDAVTVGAVRDYAERMAQARSALALYGPAEAAPALAQIRERLAA” reads “failed”; that for “MKQNQQNKKSFEVQLTQLFLFTSLPLFFLLIGVMIYANISLYLILLTMLISSLVIVYSHSKLHQKSAYQFRSLSNLLDAMVQGDYSLRARISDGDEALNELVDSINSLSLRLNKQRIETTESQLLLTTVINHIDVAILALNENNELVLTNPAAKKLLQIPAEQQEFDLIESFSQFSQIAAMNSGNSQVMSLYFANQQGKFNVHLEEYRENGKPQKLVFITDVSTMLRSEERNAWQALVRVISHEINNSLSPIASISQSLRRLLARQEKLENHKEYLVEGLSIISQRSNSLTEFVNSYKQIASLPEPKKQPSSVLELVNKTVALYPDECIEVQNIDDITLVLDAVQFEQVLINLVKNAVEAVKSAGEAGKVAISGQVNGKVFSLSLADDGTGVSNLENLFVPFYSTKSKGSGIGLVLCRQIIEAHGGKITLTNRLGVSGCIATIELPL”, “failed”.
